Measurements from patent US20070016969A1.

Target: Bovine thrombin (Sigma) (bovine) (UniProt P00735)
Assay: cell-based or functional assay

| amount of culture medium at which there is no coagulation (plasma coagulation, A405) [µL] | amount of culture medium needed for the anti-coagulation reaction at the A405 reading of 0.05 [µL] | amount of homogeneous extract of mammary gland cells at which there is no coagulation (plasma coagulation, A405) [mg] | amount of homogeneous extract of mammary gland cells needed for the anti-coagulation reaction at the A405 reading of 0.05 [mg] | Substance | amount at which there is almost no coagulation (plasma coagulation, A405) [pmol] | amount needed for the anti-coagulation reaction at the A405 reading of 0.05 [pmol] |
| --- | --- | --- | --- | --- | --- | --- |
|  |  |  |  | commercially available nature hirudin (Sigma) (from UniProt P01050 1-65) | 0.16 | 0.52 |
| 10 | 0.95 | 0.25 | 0.056 | hirudin encoded by the full-length DNA fragment Hi (SEQ ID NO: 17), expressed from pE-αLA-Hi in NMuMG mammary gland cells (from UniProt P01050 1-65) |  |  |
